{"source": "patent US20140212431A1", "about": "“PCSK9-BINDING POLYPEPTIDES AND METHODS OF USE” (Genentech, Inc., priority 2011, published 2014)", "key": {"PCSK9": {"biological_target": "T1, PCSK9 (Homo sapiens, UniProt Q8NBP7)", "T1 construct": "His8 (C); made in house; host or cells: CHO cells, transient, pRK5 vector, purified from conditioned media", "T1 sequence (Q8NBP7 153-692)": "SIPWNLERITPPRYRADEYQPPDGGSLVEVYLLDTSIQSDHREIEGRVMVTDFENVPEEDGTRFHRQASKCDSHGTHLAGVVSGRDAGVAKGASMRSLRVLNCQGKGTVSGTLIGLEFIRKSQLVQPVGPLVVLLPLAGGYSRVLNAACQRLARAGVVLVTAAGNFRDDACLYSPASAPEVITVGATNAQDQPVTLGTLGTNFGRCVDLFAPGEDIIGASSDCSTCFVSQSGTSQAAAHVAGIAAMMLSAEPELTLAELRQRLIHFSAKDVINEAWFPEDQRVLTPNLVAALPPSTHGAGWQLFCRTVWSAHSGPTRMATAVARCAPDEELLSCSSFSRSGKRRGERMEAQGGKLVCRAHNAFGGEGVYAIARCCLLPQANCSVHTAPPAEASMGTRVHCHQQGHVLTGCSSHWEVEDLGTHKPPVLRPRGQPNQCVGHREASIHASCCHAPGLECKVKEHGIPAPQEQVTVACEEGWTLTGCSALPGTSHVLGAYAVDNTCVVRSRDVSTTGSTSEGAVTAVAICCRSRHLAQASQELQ", "assay": "spot phage ELISA of EGF(A)-displaying phage clones against biotinylated PCSK9", "assay_type": "binding", "details": "compared to wild type", "description": "“s/n ratio” refers to signal:noise ratio, wherein “signal” is the spot phage ELISA signal detected against biotinylated PCSK9 captured by NeutrAvidin coated on the 384-well MaxiSorp™ plate; “noise” is the ELISA signal against NeutrAvidin alone.\nAfter four rounds of binding selection, individual phage clones were picked and inoculated into 450 μl 2YT media containing 50 μg/ml carbenecillin and M13-KO7 helper phage in 96-well blocks, which were grown at 37° C. for overnight. The supernatant was analyzed with spot phage ELISA as follows: Biotinylated PCSK9 was captured to NeutrAvidin-coated 384-well MaxiSorp™ immunoplates and phage supernatant diluted (1:3) with PBT buffer was added to the wells. The plates were washed and bound phage was detected with anti-M13-HRP followed by TMB substrate. In these assays, phage binding to NeutrAvidin alone was tested in parallel to assess background binding. Clones whose binding signals for PCSK9 were more than 4 times higher than to NeutrAvidin (background) were considered positive. Positive clones were subjected to DNA sequence analysis."}, "PCSK9 binding to LDLR": {"biological_target": "T2, PCSK9 binding to LDLR (Homo sapiens, UniProt Q8NBP7)", "T2 construct": "His8 (C); biotin (chemical, Sulfo-NHS); host or cells: PCSK9: CHO cells, transient; LDLR extracellular domain purchased", "T2 sequence (Q8NBP7 153-692)": "as above", "T2 sequence (Q8NBP7 31-152 partner limits assumed)": "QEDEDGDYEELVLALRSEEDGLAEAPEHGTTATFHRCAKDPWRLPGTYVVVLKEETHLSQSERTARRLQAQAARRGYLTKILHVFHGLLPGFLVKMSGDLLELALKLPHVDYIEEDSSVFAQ", "assay": "competition binding ELISA (biotinylated PCSK9 binding to coated rLDLR)", "details": "Fc fusion protein; average ±SD of three experiments; read-out: IC50, inhibition of PCSK9 binding to LDLR", "description": "The blocking activity of EGF peptides and EGF-Fc fusion proteins was determined by using a competition binding ELISA. Wells of 384 well MaxiSorp™ plates (Nalge Nunc International; Rochester, N.Y.) were coated overnight at 4° C. with 1 μg/mL of recombinant human LDLR extracellular domain (rLDLR) (R&D Systems; Minneapolis, Minn.) in coating buffer (50 mM sodium carbonate, pH 9.6). Then 0.5 μg/ml of biotinylated PCSK9 in assay buffer (25 mM HEPES, pH 7.2, 150 mM NaCl, 0.2 mM CaCl2, 0.1% BSA, 0.05% Tween®20) was mixed with an equal volume of serially diluted EGF peptides (0.017-6000 nM) or EGF-Fc (0.034-6000 nM) and incubated for 30 min. The solutions were added to rLDLR coated plates and incubated for 2 h. Bound biotinylated rPCSK9 was detected by sequential additions of streptavidin-horseradish peroxidase (GE Healthcare; Buckinghamshire, UK) and substrate 3, 3′, 5, 5′ tetramethyl benzidine (TMBE 1000, Moss; Pasadena, Md.). The mean absorbance values from duplicate wells were plotted as a function of antibody concentration and the data were fitted to a four parameter equation for each antibody using KaleidaGraph (Synergy Software; Reading, Pa.)."}, "liver LDLR": {"tested_on": "liver LDLR", "assay": "rescue of liver LDLR upon treatment with PCSK9 in a mouse model (immuno-blotting)", "assay_type": "in vivo", "details": "mice, 60 mg/kg i.v. 2 h before 30 μg PCSK9 i.v., liver after 1 h", "protocol": "Mice were injected with vehicle (V), EGF-Fc (WT) or EGF66-Fc (MUT) followed by a bolus injection of recombinant human PCSK9 (30 μg/mouse). Livers were collected after 1 h and LDLR quantified by immuno-blotting. Each lane represents the pooled liver samples of three mice. The band intensities were quantified, normalized to transferring receptor contents and expressed as fraction of the untreated group (=1.0).\nTo determine whether increased affinity and cell efficacy could translate into improved therapeutic potential, we compared the effects of EGFwt-Fc and EGF66-Fc in rescuing liver LDLR upon treatment with PCSK9 in a mouse model. Eight weeks old male C57BL/6 mice were purchased from approved vendor and housed for 2 weeks before starting the experiment. […]\nApproximately 200 mg of each liver were homogenized in Extraction Buffer 1 supplemented with Protease Inhibitor Cocktail (ProteoExtract® Native Membrane Protein Extraction Kit, Cat. No. 444810, Calbiochem) using the TissueLyser (Qiagen) according to manufacturer's instructions. […] After 30 min of gentle agitation at 4° C., the samples were centrifuged and the supernatants containing the membrane proteins were quantified using the Bradford assay. […]\nMice were first injected with vehicle, EGFwt-Fc and EGF66-Fc followed by a bolus of recombinant human PCSK9 (30 μg/mouse) and livers were collected and analyzed 1 h later. […]"}, "[1]": {"tested_on": "PCSK9-mediated LDLR degradation", "assay": "LDLR degradation assay with HepG2 cells (FACS of cell surface LDLR)", "assay_type": "cell-based, human", "details": "HepG2, 15 μg/ml PCSK9, 4 h, highest concentration tested 20 μM", "protocol": "Values are the average ±SD of three independent experiments.\nHepG2 cells (ATCC; Manassas, Va.) were seeded into 48 well plates (Corning; Corning, N.Y.) at 1×10^5 cells per well in high glucose medium (DMEM, Gibco; Carlsbad, Calif.) containing 2 mM glutamine (Sigma), penicillin/streptomycin (Gibco) and 10% FBS (Sigma) and incubated overnight. Then the medium was changed to DMEM containing 10% lipoprotein deficient serum (LPDS, Intracel; Frederick, Md.). After 24 h, 15 μg/ml PCSK9 was mixed with serially diluted EGFwt-Fc and EGF66-Fc fusion proteins, added to the cells and incubated at 37° C. for 4 h. Cells were rinsed with PBS and detached using 2.5 mM EDTA (EMD; Gibbstown, N.J.). After centrifugation, the resuspended cells were incubated with 1:20 anti-LDLR antibody (Progen Biotechnik; Heidelberg, Germany) on ice for 15 min. The samples were then washed with PBS and incubated with 1:200 diluted goat anti mouse IgG Alexa Fluor® 488 (Invitrogen; Carlsbad, Calif.) on ice for 15 min. After two PBS washes cells were resuspended in PBS containing 10 μg/ml of propidium iodide and analyzed on a dual laser flow cytometer (FACScan, Becton Dickinson; Franklin Lakes, N.J.). Relative fluorescence units (RFUs) were used to quantify LDLR expression levels on the HepG2 cell surface. Cell surface LDLR levels were expressed as percent of LDLR levels measured in the absence of PCSK9 (=control)."}}, "data": [{"substance": "EGF50: phage-displayed EGF(A) clone with single mutation at N309 to Arg", "values": [{"measurement": "binding of phage-displayed clone to PCSK9 (in words)", "setting": "PCSK9", "result": "moderate increase of binding"}]}, {"substance": "EGF52: EGF(A) variant: Asp299 to Ser, Asn301 to Leu, Asn309 to Arg or Lys, Asp310 to Lys; phage clone and synthetic peptide", "values": [{"measurement": "IC50", "setting": "PCSK9 binding to LDLR", "result": "0.7 ± 0.3", "unit": "nM"}]}, {"substance": "EGFwt-Fc: wild type EGF(A) domain of LDLR fused via linker GGGSGAAQVTNKTHT to Fc domain of human IgG1 [reference compound]", "values": [{"measurement": "liver LDLR level rescued, % of control levels", "setting": "liver LDLR", "result": "less than 50%"}, {"measurement": "LDLR surface levels, percent of control levels measured in the absence of PCSK9", "setting": "[1]", "result": 56, "unit": "%"}]}]}
